Test results taken from article PMC7318626.

Target: Neonatal Fc receptor (FcRn), soluble form (UniProt P55899)
Assay: mass photometry (single-molecule counting of species by mass)
Conditions: not stated (in the SI)

Sequence of UniProt P55899 (P55899 whole entry): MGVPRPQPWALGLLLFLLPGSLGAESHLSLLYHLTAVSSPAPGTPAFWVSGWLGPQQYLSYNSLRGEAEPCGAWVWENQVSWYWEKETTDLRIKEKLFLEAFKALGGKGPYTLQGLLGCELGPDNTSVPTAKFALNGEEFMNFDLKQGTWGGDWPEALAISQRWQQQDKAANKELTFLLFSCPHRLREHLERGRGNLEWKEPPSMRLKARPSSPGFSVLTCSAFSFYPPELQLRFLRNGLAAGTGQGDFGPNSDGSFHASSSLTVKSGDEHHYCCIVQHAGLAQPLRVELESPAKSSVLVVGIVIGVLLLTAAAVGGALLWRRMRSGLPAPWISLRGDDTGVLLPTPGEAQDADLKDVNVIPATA

Kd (pH 5, pH 5, 5.5, 6 and 7) [nM] | Kd (pH 5, pH 5, 5.5 and 6) [nM] | Kd (pH 5.5, pH 5, 5.5, 6 and 7) [nM] | Kd (pH 5.5, pH 5, 5.5 and 6) [nM] | Kd (pH 6, pH 5, 5.5 and 6) [nM] | Kd (pH 6, pH 5, 5.5, 6 and 7) [nM] | Kd (pH 7, pH 5, 5.5, 6 and 7) [nM] | Substance
44 ± 9 | 31 ± 11 | 171 ± 19 | >200 | >200 |  |  | Neonatal Fc receptor (FcRn), soluble form
59 ± 8 |  | 225 ± 20 |  |  | >200 | >200 | Trastuzumab (Herceptin), IgG1 monoclonal antibody, called 'IgG' in the article
6.6 ± 0.6 |  | 3.9 ± 1.5 |  |  |  |  | Trastuzumab (Herceptin), IgG1 monoclonal antibody, called 'IgG' in the article + Neonatal Fc receptor (FcRn), soluble form
